Assay results taken from patent publication US6033823A, “Mutated penicillin G acylase genes” (priority 1994, dated 2000).
Substitutions are numbered along the chain they refer to. Names and notes keep the numbering of the source.

Tests used:
Assay type in all cases: biochemical, Alcaligenes faecalis
[1] = substrate: CC1(C)S[C@@H]2[C@H](NC(=O)COc3ccccc3)C(=O)N2[C@H]1C(=O)O; assay: Deacylation kinetics and phenylacetic acid product inhibition, wild type PenG acylase; settings: other: wild type; 40 mM NaH2PO4, pH 7.5, 37° C.; pH 7.5; 37.0 °C
Description: (§1) In order to determine enzymatic activity the acylases were incubated with substrate at room temperature in buffered solution. In case β-lactamase impurity was expected to be present in the enzyme preparations, 1.0 mM -lactamase inhibitor 6-bromo-penicillanic acid was added to the assay. The reactions were stopped by adding an excess PMSF. For some mutants which were less sensitive to PMSF inhibition, the reactions were stopped by adding 0.5 M HCl or 0.5 M acetic acid until the pH was between 3 and 4. When reactions were subsequently analysed by HPLC, the reactions were stopped by dilution with the correponding elution solvent (see table 1). In addition substrates were incubated under assay conditions in absence of enzyme. If necessary enzyme assays were corrected for non-enzymatic hydrolysis
(§2) The composition of the reaction mixtures was determined by high-performanceliquid chromatography (HPLC)(table 1). Concentrations were determined by using standards of known concentration.
(§3) In a continuous assay Penicillin G acylase was assayed spectro-fotometrically with the chromogenic substrate NIPAB [6-nitro-3-phenylacetamido-benzoic acid]. The liberation of 3-amino-6-nitrobenzoic acid was monitored by measuring the extinction at 405 nm in a Kontron 610 kinetic spectrofotometer. […] Initial rate measurements were performed with varying concentration of NIPAB.
(§4) The kinetics of enzymatic hydrolysis of PenG, PenV, CefG were also studied by alkaline titration (0, OlM KOH), using a Radiometer pH-stat. All experiments were carried out in a buffer free medium.
(§5) Initial rate measurements were performed with excess substrate over the enzyme. Catalytic parameters were derived from least-squares fitting of the measured initial rates plotted for various substrate concentrations according to the Michaelis-Menten equation.
(§6) The complete conversion of NIPAB was followed as a funtion of time at 20, 50 and 100 μM NIPAB by following the increase in absorbtion at 405 nm. Products of this conversion are phenylacetic acid and 3-amino-6-nitrobenzoic acid. […] The progress curves of the deacylation of NIPAB could be fitted very well when product inhibition by phenylacetic acid was taken into account. The dissociation constants (usually referred to as inhibition constant Ki) for phenylacetic acid which could be derived from the progress curves is shown in table 11. For these mutants the yield of the conversion in a fixed time span is higher than for wild type. Alternatively, in order to obtain a certain yield a shorter conversion time is needed for the mutants.

[2] = substrate: CC1(C)S[C@@H]2[C@H](NC(=O)Cc3ccccc3)C(=O)N2[C@H]1C(=O)O; assay: as above; settings: other: wild type; 40 mM NaH2PO4, pH 7.5, 37° C.; pH 7.5; 37.0 °C
Description: as §1, §2, §3, §4, §5, §6

[3] = substrate: CC1(C)S[C@@H]2[C@H](NC(=O)[C@H](N)c3ccc(O)cc3)C(=O)N2[C@H]1C(=O)O; assay: as above; settings: other: wild type; 20 mM NaH2PO4, pH 7.0, 37° C.; pH 7.0; 37.0 °C
Description: as §1, §2, §3, §4, §5, §6

[4] = substrate: CC1(C)S[C@@H]2[C@H](NC(=O)[C@H](N)c3ccccc3)C(=O)N2[C@H]1C(=O)O; assay: as above; settings: other: wild type; 20 mM NaH2PO4, pH 7.0, 37° C.; pH 7.0; 37.0 °C
Description: as §1, §2, §3, §4, §5, §6

[5] = substrate: CC1=C(C(=O)O)N2C(=O)[C@@H](NC(=O)Cc3ccccc3)[C@H]2SC1; assay: as above; settings: other: wild type; 20 mM NaH2PO4, pH 7.5, 37° C.; pH 7.5; 37.0 °C
Description: as §1, §2, §3, §4, §5, §6

[6] = substrate: NC(=O)[C@H](N)c1ccccc1; assay: as above; settings: other: wild type; 20 mM NaH2PO4, pH 7.0, 37° C.; pH 7.0; 37.0 °C
Description: as §1, §2, §3, §4, §5, §6

[7] = substrate: O=C(Cc1ccccc1)Nc1ccc([N+](=O)[O-])c(C(=O)O)c1; assay: as above; settings: other: wild type; 0.1M NaH2PO4, pH 7.5, 25° C.; pH 7.5; 25.0 °C
Description: as §1, §2, §3, §4, §5, §6

[8] = substrate: CC1(C)S[C@@H]2[C@H](NC(=O)COc3ccccc3)C(=O)N2[C@H]1C(=O)O; assay: Deacylation kinetics and phenylacetic acid product inhibition, mutant B:L56K; settings: other: B:L56K; 40 mM NaH2PO4, pH 7.5, 37° C.; pH 7.5; 37.0 °C
Description: as §1, §2
as §3, with “NIPAB. […]” for “NIPAB.”
as §5, §6

[9] = substrate: CC1(C)S[C@@H]2[C@H](NC(=O)Cc3ccccc3)C(=O)N2[C@H]1C(=O)O; assay: as above; settings: other: B:L56K; 40 mM NaH2PO4, pH 7.5, 37° C.; pH 7.5; 37.0 °C
Description: as §1, §2
as §3, with “NIPAB. […]” for “NIPAB.”
as §5, §6

[10] = substrate: CC1(C)S[C@@H]2[C@H](NC(=O)[C@H](N)c3ccccc3)C(=O)N2[C@H]1C(=O)O; assay: as above; settings: other: B:L56K; 20 mM NaH2PO4, pH 7.0, 37° C.; pH 7.0; 37.0 °C
Description: as §1, §2
as §3, with “NIPAB. […]” for “NIPAB.”
as §5, §6

[11] = substrate: CC1=C(C(=O)O)N2C(=O)[C@@H](NC(=O)Cc3ccccc3)[C@H]2SC1; assay: as above; settings: other: B:L56K; 20 mM NaH2PO4, pH 7.5, 37° C.; pH 7.5; 37.0 °C
Description: as §1, §2
as §3, with “NIPAB. […]” for “NIPAB.”
as §5, §6

[12] = substrate: NC(=O)[C@H](N)c1ccccc1; assay: as above; settings: other: B:L56K; 20 mM NaH2PO4, pH 7.0, 37° C.; pH 7.0; 37.0 °C
Description: as §1, §2
as §3, with “NIPAB. […]” for “NIPAB.”
as §5, §6

[13] = substrate: O=C(Cc1ccccc1)Nc1ccc([N+](=O)[O-])c(C(=O)O)c1; assay: as above; settings: other: B:L56K; 0.1M NaH2PO4, pH 7.5, 25° C.; pH 7.5; 25.0 °C
Description: as §1, §2
as §3, with “NIPAB. […]” for “NIPAB.”
as §5, §6

[14] = substrate: CC1(C)S[C@@H]2[C@H](NC(=O)COc3ccccc3)C(=O)N2[C@H]1C(=O)O; assay: Deacylation kinetics and phenylacetic acid product inhibition, mutant A:M143V; settings: other: A:M143V; 40 mM NaH2PO4, pH 7.5, 37° C.; pH 7.5; 37.0 °C
Description: as §1, §2
as §3, with “NIPAB. […]” for “NIPAB.”
as §5, §6

[15] = substrate: CC1(C)S[C@@H]2[C@H](NC(=O)Cc3ccccc3)C(=O)N2[C@H]1C(=O)O; assay: as above; settings: other: A:M143V; 40 mM NaH2PO4, pH 7.5, 37° C.; pH 7.5; 37.0 °C
Description: as §1, §2
as §3, with “NIPAB. […]” for “NIPAB.”
as §5, §6

[16] = substrate: CC1(C)S[C@@H]2[C@H](NC(=O)[C@H](N)c3ccc(O)cc3)C(=O)N2[C@H]1C(=O)O; assay: as above; settings: other: A:M143V; 20 mM NaH2PO4, pH 7.0, 37° C.; pH 7.0; 37.0 °C
Description: as §1, §2
as §3, with “NIPAB. […]” for “NIPAB.”
as §5, §6

[17] = substrate: CC1(C)S[C@@H]2[C@H](NC(=O)[C@H](N)c3ccccc3)C(=O)N2[C@H]1C(=O)O; assay: as above; settings: other: A:M143V; 20 mM NaH2PO4, pH 7.0, 37° C.; pH 7.0; 37.0 °C
Description: as §1, §2
as §3, with “NIPAB. […]” for “NIPAB.”
as §5, §6

[18] = substrate: CC1=C(C(=O)O)N2C(=O)[C@@H](NC(=O)Cc3ccccc3)[C@H]2SC1; assay: as above; settings: other: A:M143V; 20 mM NaH2PO4, pH 7.5, 37° C.; pH 7.5; 37.0 °C
Description: as §1, §2
as §3, with “NIPAB. […]” for “NIPAB.”
as §5, §6

[19] = substrate: NC(=O)[C@H](N)c1ccccc1; assay: as above; settings: other: A:M143V; 20 mM NaH2PO4, pH 7.0, 37° C.; pH 7.0; 37.0 °C
Description: as §1, §2
as §3, with “NIPAB. […]” for “NIPAB.”
as §5, §6

[20] = substrate: O=C(Cc1ccccc1)Nc1ccc([N+](=O)[O-])c(C(=O)O)c1; assay: as above; settings: other: A:M143V; 0.1M NaH2PO4, pH 7.5, 25° C.; pH 7.5; 25.0 °C
Description: as §1, §2
as §3, with “NIPAB. […]” for “NIPAB.”
as §5, §6

B1: Alcaligenes faecalis Penicillin G acylase, wild type (α subunit SEQ ID NO:27, β subunit SEQ ID NO:32) (Alcaligenes faecalis) (protein)
chain 1: QVQSVEVMRDSYGVPHVFADSHYGLYYGYGYAVAQDRLFQMDMARRSFVGTTAAVLGPGEQDAYVKYDMQVRQNFTPASIQRQIAALSKDERDIFRGYADGYNAYLEQVRRRPELLPKEYVDFDFQPEPLTDFDVVMIWVGSMANRFSDTNLEVTALAMRQSLEKQHGPERGRALFDELLWINDTTAPTTVPAPAAEHKPQA
chain 2: SNLWSTRPERVQEGSTVLINGPQFGWYNPAYTYGIGLHGAGFDVVGNTPFAYPIVLFGTNSEIAWGATAGPQDVVDIYQEKLNPSRADQYWFNNAWRTMEQRKERIQVRGQADREMTIWRTVHGPVMQFDYDQGAAYSKKRSWDGYEVQSLLAWLNVAKARNWTEFLDQASKMAISINWYYADKHGNIGYVSPAFLPQRPADQDIRVPAKGDGSMEWLGIKSFDAIPKAYNPPQGYLVNWNNKPAPDKTNTDTYYWTYGDRMNELVSQYQQKDLFSVQEIWEFNQKASYSDVNWRYFRPHLEKLAQQLPADDSSKAALTMLLAWDGMEQDQGGQNAGPARVLFKTWLEEMYKQVLMPVVPESHRAMYSQTGFATQQGPNPGSINLSMGTKVLLRALVLEAHPDPKRVNVFGERSSQEIMHTALQNAQARLSQEQGAQMARWTMPTSVHRFSDKNFTGTPQTMPGNTFAFTGYQNRGTENNRVVFDAKGVEFCDAMPPGQSGFTDRNGVRSPHYEDQLKLYENFECKTMDVTHADIRRNAQSSTMLLIQPQP
notes: alpha 202 aa, beta 551 aa; likely recombinant, E. coli host
Question: Which results are given for B1?
Answer: Km [1]: 18 µM; Vmax [1]: 4.0 U/mg; Km [2]: 2 µM; Vmax [2]: 45.5 U/mg; Km [3]: 14000 µM; Vmax [3]: .9 U/mg; Km [4]: 700 µM; Vmax [4]: 23.5 U/mg; Km [5]: 1 µM; Vmax [5]: 12.5 U/mg; Km [6]: 8600 µM; Vmax [6]: 27.5 U/mg; Km [7]: 4 µM; Vmax [7]: 37.0 U/mg

B2: Alcaligenes faecalis Penicillin G acylase mutant B:L56K (Alcaligenes faecalis; L321K) (protein)
chain 1: B1 chain 1
chain 2: B1 chain 2 with L56K
notes: alpha 202 aa, beta 551 aa; recombinant, E. coli host
Question: For B2, which Km [8] is on record?
Answer: The Km was 35 µM.

Question: What about the Vmax [8] of the same protein?
Answer: Its Vmax is 15.5 U/mg.

Question: What about the Km [9] of the same protein?
Answer: Its Km is 1 µM.

Question: What about the Vmax [9] of the same protein?
Answer: The Vmax was 36.4 U/mg.

Question: What about the Km [10] of the same protein?
Answer: The Km was 1700 µM.

Question: What about the Vmax [10] of the same protein?
Answer: Its Vmax is 20.9 U/mg.

Question: What about the Km [11] of the same protein?
Answer: Its Km is 10 µM.

Question: What about the Vmax [11] of the same protein?
Answer: The Vmax was 25.5 U/mg.

Question: And the Km [12]?
Answer: The Km was 49000 µM.

Question: And the Vmax [12]?
Answer: Its Vmax is 18.2 U/mg.

Question: What about the Km [13] of the same protein?
Answer: Its Km is 28 µM.

Question: What about the Vmax [13] of the same protein?
Answer: The Vmax was 47.3 U/mg.

B3: Alcaligenes faecalis Penicillin G acylase mutant A:M143V (Alcaligenes faecalis; M169V) (protein)
chain 1: B1 chain 1 with M143V
chain 2: B1 chain 2
notes: as for B2
Question: What does the source list for B3?
Answer: Km [14]: 31 µM; Vmax [14]: 10.3 U/mg; Km [15]: 6 µM; Vmax [15]: 40.5 U/mg; Km [16]: 21000 µM; Vmax [16]: .2 U/mg; Km [17]: 1500 µM; Vmax [17]: 23.0 U/mg; Km [18]: 7 µM; Vmax [18]: 56.4 U/mg; Km [19]: 35000 µM; Vmax [19]: 22.2 U/mg; Km [20]: 17 µM; Vmax [20]: 35.7 U/mg
